Results from paper doi:10.1101/2021.03.17.435802.
pKd: −log10 of the molar value.

How the values were obtained:
[1] = biological target: catalytically active ACE2-Fc (human) (UniProt Q9BYF1); experiment: SPR
ACE2(HH:NN)-Fc (human) = ACE2(HH:NN)-Fc (human) (UniProt Q9BYF1); experiment: SPR

Angiotensin II (peptide)
pKd [1]: 6.93
pKd (ACE2(HH:NN)-Fc (human)): 5.89
